Experimental data: article doi:10.1101/2025.07.27.667015

Key:
[1] = target: Methionine γ-lyase from Yarrowia lipolytica (yMGL) (Yarrowia lipolytica); test: crystal structure
[2] = target: Methionine γ-lyase from Yarrowia lipolytica (yMGL) (Yarrowia lipolytica); test: SEC + other: dynamic light scattering
[3] = target: yMGL-ΔCTD (yMGL with the C-terminal residues 253-380 deleted) (Yarrowia lipolytica); test: SEC + other: dynamic light scattering

Substance	stoichiometry N [1]	stoichiometry N [2]	stoichiometry N [3]
Methionine γ-lyase from Yarrowia lipolytica (yMGL) (enzyme)	2	4	
yMGL-ΔCTD (yMGL with the C-terminal residues 253-380 deleted) (domain or fragment)			6
